In the domain aggregation screens of Martell et al. (2025):

Assay: soluble fraction after stress (log2 fold change); higher = more stays soluble; pooled small domains, quantitative proteomics
Conditions: stress: 75 degC
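Further: 20 min heating vs room temperature control held 20 min.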

| Sequence | soluble fraction (log2) |
| --- | --- |
| HMEEPEYELLRQAVLALPEKYRLPIHLYYYEEYSVREIAEILQRKESAVQTQLQRGREKIRRSLTEKGVS | -0.874 |
| HMEEPLIISIDSNGAVYLEVDSFKDQSIEMSSLREIIEKIILANPDIQVVVRGDSEVKYEKVMDLMSILQS | -1.58 |
| HMEEQGLPLVIISDGKVLAQNLTLRSLDRAWLQDQLTQHGHSKPEQVFLLTVDERGAVYYVPKE | -0.556 |
| HMEEQQIQLIQMKMEKDHKYVGKKISELRIKNMLIVLIKRGDEDIIPRAEVKIKEGDILVLSAQSYEG | -0.424 |
| HMEETAFEKLSPLQKLRALGKPLTMINMRDGSQIAGSVQRSDDKFLYLDTGDGIAKLPVEEILRRTPM | 0.149 |
| HMEETIVFGQQKAINALSSDAGLSSNELDSYLKKRYKRPLYQLSKSEGAELIQGFQDGSLSKASIMDYVS | 0.19 |
| HMEEVIEVEGKITAVLPSTMFRAELENGHQVLAHISGKLRKHFIKITVGDIVKMEMSTQDLQKARIV | -0.411 |
| HMEEVRFPLKKEILLWALKEAQVDEDEVFRKFTNLEKWINGEKHPTFKQIESLANYLKIPFGYMFLEKPPI | -1.02 |
| HMEEVVIPDLAGLTEEEATKVLMAKELKLKVSGSQHSDIEKGLIISQDPPAGEKGAKNSQVAVVTSSG | 0.0827 |
| HMEFDFGAILSGNGGSELYSGYSAEQKAALVEAAKADGMDVEFGADGSTTFKDKDGSEVVQKADGTWTV | 0.235 |
| HMEFDVELTSFEEAKKLKVIKEVKDVTGLSLGEAKDLVMGAPKAIKTGVSKEEAEAIKTQIEAAGAVVTI | 0.101 |
| HMEFDYIVKVPDVRNKKIEDAGKILIDLGLKYTTESDYITQDLKVIDQFPLPGTEVSKGSIIDIYLEEDFK | -0.473 |
| HMEFEKYKYHYIFDDVLGLRIVWDRGKEHFSYFVNEELAEKSRKSDKDALEVMFYLEHKRWPEEGELENY | -1.67 |
| HMEFEYTVVVPETRGKTIGEAGRILLDLELKYTSESMNIREDSKVIDQFPSPGTEVSKGSIIDLYLDE | -0.137 |
| HMEFQISLAAARVNANMTQEDTARAMKVSKTTIVNWEKGKVIPGIPEVEMMSRLYGIPQDYIFLP | -3.08 |
| HMEFSYLEEIGHEKGDLIKGLQLIQQKEGYVSDDAVRAVAENFGMSPAEVEGVLTFYAQFKR | -0.162 |
| HMEGFKSVYFLTTPSGAEISDRSVGDIISKTPSLVSAQEGTEFEFNLKGYQPSFYMINKRSPDRVFVELIP | -0.545 |
| HMEGLEKDDGGYYFEKDNGERARNEWVYVEYEGKGYWYYMTDYGYPLRSAITPDGYKVNSNGHWIDEGN | -0.644 |
| HMEGLESVVPDLRGKSLKSAAIAAGLSGFALSPEGSGIVYKQSPAPGGRYLKGTLIAVWLRT | -1.95 |
| HMEGMQATVTQITDEGITVRYVMNGQMVTRTLTSDEVAFVNRGQAVSDLAGAYRVGQTVWIY | -0.446 |
| HMEGNAFASTGDPEADILDITAVHPMRRDAVEELLARSGAEWSLVEGMLRDGKITMAPWEGEEFFIRS | 0.105 |
| HMEGNWGLWAKVPNRFAALTTDKDSALRRFKSKEDGEAWMASHGLKPERFDVLEIPADYKPA | 0.435 |
| HMEGRHFRILYILLNNERVTAPELAEEFGVSVRTIYRDIDTMSAAGIPIYMQGGRKGGIYLLEGY | -1.11 |
| HMEGSRASMDGQVPGKTSYLEWLARQPAQRQDQVLGAERGRLFRAGEIDLADMFTDKGEWISLERLKQLS | 0.309 |
| HMEGVSNLIVSVTRVKVTVDLSQAKVYLSIFPSEQAAFYLNALQQNRFQLKHDLSQLLKNQLRRIPTLQF | 0.296 |
| HMEHDYGLSGREREVLELMVQGLVKKEIADRLALSYHTVDNHLRSIYAKLQVHTRGGAVAKALSEHLVPP | -0.0631 |
| HMEHGQWLSEAQGASLAADWLARRRGVLPLNARRHLSGLSDQIARQIEGGLSREAGLYTAHEMMESLDP | -0.427 |
| HMEHNDPEVERTMFQGLEALKLQLFEKAFGHFSLLIKLAPDYAEAWNKRATVLYLMGRFKESESDVMRTLE | 0.16 |

| Sequence | soluble fraction (log2) |
| --- | --- |
| HMEHQLLHMEKTIFEEIADDYPQLNHTKIRNVLAAFLFTNDDVFKRIADLSGGERGRVSLAKLMLSDA | -0.159 |
| HMEHTPYLTEREADVVRLLVSGLDTAQIAQRLGIKTATVTAHKKHIFLKIGVRNTTQLVAWALIR | -2.3 |
| HMEIELHNLALNIKEFRKKNKLSQAELAEKLGVARTTIGYYERAEVEPNIYTLVQLSKLMNRSIDSLLGL | -2.64 |
| HMEIFYGDDRVYTVSLHGQNNFPFRKKTSDFDYGFEDGTGDEEYLRVLDVTLSRLENEQFDLLFFQAGV | -0.068 |
| HMEIFYSARAWAKLNDLVATRTYLQHLGAIAGRIGRSEGLSPDRIPDGRDGAVNGWPLWVWDRAYAEVS | -2.82 |
| HMEIGLIRVDSRLIHGQVITKWLNYSKANVIVVVDDELSKDSFMSEIYKASAPNGIIVEILSIDDFMKNT | -0.0469 |
| HMEIHIGSLIKEKMEERGLSVSDFAHALHYERTNIYKIFKRSSIDVDLLLRISEVLAYDFLREVYL | -2.4 |
| HMEINKLIELIGGYKALSEVLNVSKSAISNYKKRGSLPSYAIPIIVKELKSKGISIDLSEFT | -0.837 |
| HMEISAIIGNNLQQLRKEQGLSLDQLALKTGVSKAVLSQLENGKANPTINTIWKIATALHVTYSALLEPP | -1.15 |
| HMEISEILNPPLVTAMAERYPEVDVSYYRDKYILYYESREHKITDHRRNFEKWLLVESQKEEN | -0.861 |
| HMEISTENESFSNGLLEHPHYTRPPVWEDLKIPAVLMSGHHGKVAEWRKQQSEALTQERRPDLWEAFG | -0.14 |
| HMEITSSNELKKMISNLINSENKNNPISDSNIVEKLKENDFLVARRTVAKYRKLLGIKNVNQRKE | -0.359 |
| HMEIYELTDQEQRVLEFIGEGMTNREIAKNMFLAEKTVKNYVSSLLRKLGLERRTQAAAMAVRLSV | -0.119 |
| HMEKAYVWTDTRTFDVQNYIGKKKSEVKNDQYGFEFLGEGDYVIDQLPRVGEQIEEGQKVKIMLGNQQEI | 0.178 |
| HMEKDKGTILKEARIKKGLTQEQLANNINYTRQYISKWENNISLPKDIQTLKKISNLLSIPLKELLPEDYL | -0.442 |
| HMEKEFLFNGGKVVMNYEADRIQIMHDTKPGQDVITLMKKNGFKWSPFNKAWQRQITANAIYTTKHLINQ | -1.71 |
| HMEKGIVSNKTDKGYGFIRSSTGESIFVHINNVGKEAYEQLAKGSRVLFDYEVTDRGKRATKVMLEPSES | -0.196 |
| HMEKGLQYRRTDRAIMNAFIKLVNQGSFEKLTVQEILDEALVSRNTFYAHYRDIYDLMDALSN | -1.52 |
| HMEKIDEDIMDVLKKKAEVSGISLGVLKSIYEKAVKQYKLGHEIGQVKEQYAMQKVNTHLLENK | 0.461 |
| HMEKIDYLSIGHRLRAYRIASSLKAEDVAESLGISRAAVYRLEKGEIVKIETLDNLARLLNTSLSSLLG | -3.37 |
| HMEKIKNLTVTEFNLIANKNPSGSYDRITREALLHIIHKLESSYEAHTDLERKLFYKFRKAKFNAL | -2.87 |
| HMEKIYLISDAAKQVNVEAHVLRYWEEELDIPAKRNELGHRYYTQEDIETFRKVKELKAQGIQLKGIKNIL | -0.225 |
| HMEKLLTTRQSQIFELAKRKGYWNIPREISITQLAQLTGSSKSTISVMLHAIESKIVDTFYDEI | -3.05 |
| HMEKLNERLLYLRKNANLTQQQLADKLHISNKTISQWETGRTLPDIVMLVRLAEIYDMKLDELLNQ | -1.1 |
| HMEKMLENIDLKAAVEALPEREKKVILLRYYRGMTQDAAAKVMKVSQVQISRIEKRAIEILREKL | -2.54 |
| HMEKNKERIAFLKKRLEMYYEAEEKILQGQSYTIGSRTLTRTSLANVQSKIKELESEISALETRGN | -1.5 |
| HMEKRIIMLEELKKQVYEANMELPRRGLITYTWGNVSGIDRESGNFVIKPSGVDYDKLKPEDMVVMDL | 0.249 |
